assay: yeast display, Sf9 membrane polyspecificity reagent, FACS + sequencing; frameworks hold sequencing errors
In short: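 After 36–48 hours of galactose induction, yeast (Saccharomyces cerevisiae BJ5465) displaying a synthetic nanobody library were stained at 4 °C for 1 hour with 10% biotinylated, detergent-solubilized Sf9 membrane reagent. Streptavidin microbeads enriched the stained cells before FACS sorting into low and high (top ~1%) gates on anti-HA and streptavidin fluorescence. Each clone's polyreactivity label reflects its gate of origin.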

Sequence | polyreactivity (PSR sort gate)
QVQLVESGGGLVQAGGSLRLSCAASGFTFDANAMGWYRQAPGKERELVAAISWSGGSTYYADSVKGRFTISRDNAKNTVYLQMNSLKPEDTAVYYCAARRYSYVGGQGSDYWGQGTKVTVSS | high polyreactivity
QVQLVESGGGLVQAGGSLRLSCAASGFTFDAYAMGWYRQAPGKERELVADINYSVGSTTYADSVKVRFTISRDNAKNTVYLQMNSLKPEDTAVYYCAAQGTWYAWDYDYWGQGTQVTVSS | low polyreactivity
QVQLVESGGGLVQAGGSLRLSCAASGFTFDDNAMGWYRQAPGKERELVAVITKSGGRTYYADSVKGRFTLSRDNAKNTVYLQMNSLKPEDTAVYYCNADGRNWYYKWYDYWGQGTQVTVSS | low polyreactivity
QVQLVESGGGLVQAGGSLRLSCAASGFTFDEKAMGWYRQAPGINYSGASTYYADSVKGRFTISRDNAKNTVYLQMNSLKPEDTAVYYCAAEVVAQMNYWGQGTQVTVSS | low polyreactivity
QVQLVESGGGLVQAGGSLRLSCAASGFTFDENAMGWYRQAPGINYSGASTYYADSVKGRFTISRDNATNTVYLQMNSLKPEDTAVYYCAAEVVAQMNYWGQGTQVTVSS | low polyreactivity
QVQLVESGGGLVQAGGSLRLSCAASGFTFDFYDMGWYRQAPGKERELVAAISWDGGTTYYADSVKGRFTISRDNAKNTVYLQMNSLKPEDTAVYYCAADDWVYVPTRAWYLYEYWGQGTQVTVSS | low polyreactivity
QVQLVESGGGLVQAGGSLRLSCAASGFTFDIYAMGWYRQAPGKERELVADITSGGSTDYADSVKGRFTISRDNAKNTVYLQMNSLKPEDTAVFYCNAAVFYEPEWQYDYWGQGTQVTVSS | low polyreactivity
QVQLVESGGGLVQAGGSLRLSCAASGFTFDIYAMGWYRQAPGKERELVADITSGGSTDYADSVKGRFTISRDNAKNTVYVQMNSLKPEDTAVYYSNAAVFYDPEWQYDYWGQGTQVTVSS | low polyreactivity
QVQLVESGGGLVQAGGSLRLSCAASGFTFDIYAMGWYRQAPGKERELVATISRSGGTTYYADSVKGRFTISRDNAKNTVYLQMNSLKPEDTAVYYCAAGAYSYRYRYRMDYWGQGTQVTVSS | high polyreactivity
QVQLVESGGGLVQAGGSLRLSCAASGFTFDNYAMGWYRQEPGKERELVAAINISGGRTYYADSVKGRFTISRDNAKNTVYLQMNSLKPEDTAVYYCNIYYWYYALDYWGQGTQVTVSS | high polyreactivity
QVQLVESGGGLVQAGGSLRLSCAASGFTFDNYTMGWYRQAPGKERELVAAITSSAGSTDYADSVKGRFTISRDNAKNTVYLQMNSLKPEDTAVYYCNDDFLYGTYDYWGQGTQVTVSS | low polyreactivity
QVQLVESGGGLVQAGGSLRLSCAASGFTFDNYVMGWYRQAPGKERELVAAISKSGTSTYYADSVKGRFTISRDNAKNTVYLQMNSLKPEDTAVSYCAARQYSQEPYDYWGQGTQVTVSS | high polyreactivity
QVQLVESGGGLVQAGGSLRLSCAASGFTFDPYAIGWYRQAPGKERELVAAISISGGRTYYADSVKGRITISRDNAKNTVYVQMISLKPEDSAVYYCAVAQSHYFGGYGYWGQGTKVTVSS | low polyreactivity
QVQLVESGGGLVQAGGSLRLSCAASGFTFDPYAMGWYRQAPGKERELVAAISWIGTNTYYADSVKGRFTISRDNAKNTVYLLMNSLKPEDTAVYYCAADGPTIAVGSYDYWGQGTQVTVSS | low polyreactivity
QVQLVESGGGLVQAGGSLRLSCAASGFTFDQYGMGWYRQAPGKERVLVAGISWGGGTTYYADSVKGRFTISRDNAKNTVYLQMNSLKPEDTAVYYCAAVRPGYPYYGSDYWGQGTQVTVSS | low polyreactivity
QVQLVESGGGLVQAGGSLRLSCAASGFTFDRYAMGWYRQAPGKERELVAAISRSGGSTHYADSVKGRFTISRDNAKNTVYLQMNSLKPEDTAVYYCNKRWFYDGYDYWGQGTQVTVSS | high polyreactivity
QVQLVESGGGLVQAGGSLRLSCAASGFTFDRYAMGWYRQAPGKERELVAAISRSGGSTHYADSVKGRFTISRDNAKNTVYLQMNSLKPEDTAVYYCNKRWYYDGYDYWGQGTQVTVSS | high polyreactivity
QVQLVESGGGLVQAGGSLRLSCAASGFTFDSYAMGWYRQAPGKERELVAAITWDGGSTYYADSVKGRFTISRDNAKNTVYLPMNSLKPEDTAVYYCAAVSGFYDQYDYWGQGTQVTVSS | low polyreactivity
QVQLVESGGGLVQAGGSLRLSCAASGFTFDSYAMGWYRQAPGKERELVAAITWDGGSTYYADSVKGRFTISRDNAKNTVYLQMNSLKPEDTAVYYCAADFGTISIDVYSWMDYWGQGTQVTVSS | low polyreactivity
QVQLVESGGGLVQAGGSLRLSCAASGFTFDSYAMGWYRQAPGKERELVAAMSYRGGTTYYADSVKGRFTISRDNAKNTGYLQMNSLKPEDTAVYYCNRLWKYGYNYWGQGTQVTVSS | high polyreactivity
QVQLVESGGGLVQAGGSLRLSCAASGFTFDSYAMGWYRQAPRKERELVAAITSDGSTYYADSVKGRFTISRDNAKNNVYLQMNSLKAEDTAVYYCAADGISLYATAYDYWGQGTQVTVSS | low polyreactivity
QVQLVESGGGLVQAGGSLRLSCAASGFTFDWNSMGCYRQAPGQERELVATIRWSVGSTYYADSVKGRFTISRDNAKNTVYLQMNSLKPEDTAVYYCAADSQWSYPDYPGEYAYDYWGQGTQVTVSS | low polyreactivity
QVQLVESGGGLVQAGGSLRLSCAASGFTFDWYAMGWYRQAPGKERELVAAMYYADSVKGRFTISRDNAKNTVYLQMNSLKPEDTAVYYCNAGGYFFPTVYHYGYWGQGTQVTVSS | low polyreactivity
QVQLVESGGGLVQAGGSLRLSCAASGFTFDYNAMGWYRQAPGKDRELVAAISESGGSTYYADSVKGRFTISRDNAKNTVYLQMNSLKPEDTAVYYCPTDFPVYYDYGYWGQGTQVTVSS | high polyreactivity
QVQLVESGGGLVQAGGSLRLSCAASGFTFDYNPMGWYRQAPGKERELVAAISNTGDSTYYADSVKGRFTISRDNAKNTDYLQMNSLKPDDTAVYYCAADCLFDVYWEYDYWGQGTQVTVSS | low polyreactivity
QVQLVESGGGLVQAGGSLRLSCAASGFTFDYYAMGWYRQAPGKERELVAVITSRGGSTFYADSVKGRFTISRDNAKNTVYLQMNSLKPEDTAVYYCARQHYRLFRPYDYWGQGTQVTVSS | high polyreactivity
QVQLVESGGGLVQAGGSLRLSCAASGFTFDYYTMGWYRQAPGKERELVATITRSAGRTYYADSVKGRFTISRDNAKNTVYLQMNSLKPEDTAVYYCNADAYVYFDDGDYWGQGTQVTVSS | low polyreactivity
QVQLVESGGGLVQAGGSLRLSCAASGFTFEDYAMGWYRQAPGTERELVAAISSRGTSTYYADSVKGRFTISRDNAKNTVYLQMNSLKPEDTAVYYFNKRGWYPYGYWGQGTQVTVSS | high polyreactivity
QVQLVESGGGLVQAGGSLRLSCAASGFTFEENAMGWYRPAPGKERELVAAINWSGGNTYYADSVKGRFTISRDNAKNPDSLQMNSLKPEDSAVYYCNAAGAGDDYDYWGQGTQVTVSS | high polyreactivity
QVQLVESGGGLVQAGGSLRLSCAASGFTFEGYAMGGYRQAPGKERELVAAINGSGGSTYYADSVKGRFTISRDYAKNTVYLQMNSLKPEDTAVYYCAKSGYGNRGFDYWGQGTQVTVSS | low polyreactivity

— the nanobody polyreactivity screen of Harvey et al. (2022)
